The values that follow come from publication PMC9576766, “The human TRPA1 intrinsic cold and heat sensitivity involves separate channel structures beyond the N-ARD domain” (Nature Communications, 2022).

This series deals with the molecule itself. As to the kind of experiment: SEC; gel filtration on a Sephadex 100 (G-100) size exclusion column; 20 mM HEPES, 10% glycerol, 150 mM NaCl, pH 7.8, 0.014% Fos-Choline-14; immunoglobulin of 150 kDa as reference for the tetrameric fraction.

B1: Δ1–854 hTRPA1 (human TRPA1 without its N-terminal ankyrin repeat domain and transmembrane segments S1–S4) (domain or fragment, UniProt O75762 855-1119, looked up)
chain: NCGIFIVMLEVILKTLLRSTVVFIFLLLAFGLSFYILLNLQDPFSSPLLSIIQTFSMMLGDINYRESFLEPYLRNELAHPVLSFAQLVSFTIFVPIVLMNLLIGLAVGDIAEVQKHASLKRIAMQVELHTSLEKKLPLWFLRKVDQKSTIVYPNKPRSGGMLFHIFCFLFCTGEIRQEIPNADKSLEMEILKQKYRLKDLTFLLEKQHELIKLIIQKMEIISETEDDDSHCSFQDRFKKEQMEQRNSRWNTVLRAVKAKTHHLEP
notes: keeps most of the S4-S5 linker (N855, C856), S5-S6 and the C-terminal domain; gene optimised for expression in insect cells; the vector pTriEx-3 is named; The tetramer is by gel filtration; a smaller monomeric fraction eluted as well; also called S1–S4 transmembrane domain deleted hTRPA1
As for B1, the “stoichiometry N” value came to 4.
